Square brackets hold non-standard residues; d marks the D form. Ends that are not written are not given here. Arg(Me2a) = CN(C)C(=N)NCCC[C@H](N)C(=O)O; Lys(Me3) = C[N+](C)(C)CCCC[C@H](N)C(=O)O
T1: SET domain of Ricinus communis ATXR5 (a.a. 158-374) (Ricinus communis, UniProt B9RU15 158-374)
T1 sequence: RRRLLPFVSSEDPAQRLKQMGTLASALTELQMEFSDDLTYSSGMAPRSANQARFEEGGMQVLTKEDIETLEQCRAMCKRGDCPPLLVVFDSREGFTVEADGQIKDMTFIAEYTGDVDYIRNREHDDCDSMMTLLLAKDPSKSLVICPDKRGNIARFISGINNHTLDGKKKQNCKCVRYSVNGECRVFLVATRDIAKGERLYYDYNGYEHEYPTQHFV


Columns and labels:
[1] = target: RcATXR5 (ATXR5 SET domain) (Ricinus communis, UniProt B9RU15); assay type: binding
[2] = target: nucleosome core particle (Xenopus laevis recombinant histone octamer on 147 bp 601 DNA) (Xenopus laevis); assay: native gel or EMSA
[3] = target: T1, SET domain of Ricinus communis ATXR5 …; assay: crystal structure

Molecule | binding result [3] | further results
Nc1ncnc2c1ncn2[C@@H]1O[C@H](C[C@@H](N)CC[C@H](N)C(=O)O)[C@@H](O)[C@H]1O [SFG, sinefungin] | – | GST pull-down, compound-dependent association with GST-PHD [1]: PHD domain of ATXR5 senses the binding of sinefungin to the SET domain
full-length Glycine max ATXR5 (a.a. 1-334) (enzyme) | – | Kd [2]: 380 nM
KQLATKAA[Arg(Me2a)]KSAPATGGVKY (not fully specified) [histone H3.1 peptide (a.a. 18-36) R26me2a] | binds | –
KQLATKAARKSAPATGGV[Lys(Me3)]Y [histone H3.1 peptide (a.a. 18-36) K36me3] | binds | –
KQLATKAA[Rme1]KSAPATGGVKY [histone H3.1 peptide (a.a. 18-36) R26me1] | binds | –

From PMC5499861 (Nucleic Acids Research, 2017)
